As usually defined, the IC50 is the concentration needed to halve the response being measured. A higher IC50 goes with weaker potency.

To fix the notation:
B1: PAS(200)-VEGFR1D2/R2D3-PDGFRαD123 (receptor)
chain: HHHHHHASPAAPAPASPAAPAPSAPAASPAAPAPASPAAPAPSAPAASPAAPAPASPAAPAPSAPAASPAAPAPASPAAPAPSAPAASPAAPAPASPAAPAPSAPAASPAAPAPASPAAPAPSAPAASPAAPAPASPAAPAPSAPAASPAAPAPASPAAPAPSAPAASPAAPAPASPAAPAPSAPAASPAAPAPASPAAPAPSAPASDTGRPFVEMYSEIPEIIHMTEGRELVIPCRVTSPNITVTLKKFPLDTLIPDGKRIIWDSRKGFIISNATYKEIGLLTCEATVNGHLYKTNYLTHRQTNTIIDVVLSPSHGIELSVGEKLVLNCTARTELNVGIDFNWEYPSSKHQHKKLVNRDLKTQSGSEMKKFLSTLTIDGVTRSDQGLYTCAASSGLMTKKNSTFVRVHEKQLSLPSILPNENEKVVQLNSSFSLRCFGESEVSWQYPMSEEESSDVEIRNEENNSGLFVTVLEVSSASAAHTGLYTCYYNHTQTEENELEGRHIYIYVPDPDVAFVPLGMTDYLVIVEDDDSAIIPCRTTDPETPVTLHNSEGVVPASYDSRQGFNGTFTVGPYICEATVKGKKFQTIPFNVYALKATSELDLEMEALKTVYKSGETIVVTCAVFNNEVVDLQWTYPGEVKGKGITMLEEIKVPSIKLVYTLTVPEATVKDSGDYECAARQATREVKEMKKVTISVHEKG
notes: the tag stands at the N-terminus; also called EPS1109P
B2: PDGFRαD123-(GGGGS)3-PAS(600)-(GGGGS)3-VEGFR1D2/R2D3 (receptor)
chain: QLSLPSILPNENEKVVQLNSSFSLRCFGESEVSWQYPMSEEESSDVEIRNEENNSGLFVTVLEVSSASAAHTGLYTCYYNHTQTEENELEGRHIYIYVPDPDVAFVPLGMTDYLVIVEDDDSAIIPCRTTDPETPVTLHNSEGVVPASYDSRQGFNGTFTVGPYICEATVKGKKFQTIPFNVYALKATSELDLEMEALKTVYKSGETIVVTCAVFNNEVVDLQWTYPGEVKGKGITMLEEIKVPSIKLVYTLTVPEATVKDSGDYECAARQATREVKEMKKVTISVHEKGGGGGSGGGGSGGGGSASPAAPAPASPAAPAPSAPAASPAAPAPASPAAPAPSAPAASPAAPAPASPAAPAPSAPAASPAAPAPASPAAPAPSAPAASPAAPAPASPAAPAPSAPAASPAAPAPASPAAPAPSAPAASPAAPAPASPAAPAPSAPAASPAAPAPASPAAPAPSAPAASPAAPAPASPAAPAPSAPAASPAAPAPASPAAPAPSAPAASPAAPAPASPAAPAPSAPAASPAAPAPASPAAPAPSAPAASPAAPAPASPAAPAPSAPAASPAAPAPASPAAPAPSAPAASPAAPAPASPAAPAPSAPAASPAAPAPASPAAPAPSAPAASPAAPAPASPAAPAPSAPAASPAAPAPASPAAPAPSAPAASPAAPAPASPAAPAPSAPAASPAAPAPASPAAPAPSAPAASPAAPAPASPAAPAPSAPAASPAAPAPASPAAPAPSAPAASPAAPAPASPAAPAPSAPAASPAAPAPASPAAPAPSAPAASPAAPAPASPAAPAPSAPAASPAAPAPASPAAPAPSAPAASPAAPAPASPAAPAPSAPAASPAAPAPASPAAPAPSAPAASPAAPAPASPAAPAPSAPAASPAAPAPASPAAPAPSAPAAGGGGSGGGGSGGGGSSDTGRPFVEMYSEIPEIIHMTEGRELVIPCRVTSPNITVTLKKFPLDTLIPDGKRIIWDSRKGFIISNATYKEIGLLTCEATVNGHLYKTNYLTHRQTNTIIDVVLSPSHGIELSVGEKLVLNCTARTELNVGIDFNWEYPSSKHQHKKLVNRDLKTQSGSEMKKFLSTLTIDGVTRSDQGLYTCAASSGLMTKKNSTFVRVHEKHHHHHH
notes: also called EPS1114P
B3: PDGFRαD123-PAS(300)-VEGFR1D2/R2D3 (receptor)
chain: QLSLPSILPNENEKVVQLNSSFSLRCFGESEVSWQYPMSEEESSDVEIRNEENNSGLFVTVLEVSSASAAHTGLYTCYYNHTQTEENELEGRHIYIYVPDPDVAFVPLGMTDYLVIVEDDDSAIIPCRTTDPETPVTLHNSEGVVPASYDSRQGFNGTFTVGPYICEATVKGKKFQTIPFNVYALKATSELDLEMEALKTVYKSGETIVVTCAVFNNEVVDLQWTYPGEVKGKGITMLEEIKVPSIKLVYTLTVPEATVKDSGDYECAARQATREVKEMKKVTISVHEKGASPAAPAPASPAAPAPSAPAASPAAPAPASPAAPAPSAPAASPAAPAPASPAAPAPSAPAASPAAPAPASPAAPAPSAPAASPAAPAPASPAAPAPSAPAASPAAPAPASPAAPAPSAPAASPAAPAPASPAAPAPSAPAASPAAPAPASPAAPAPSAPAASPAAPAPASPAAPAPSAPAASPAAPAPASPAAPAPSAPAASPAAPAPASPAAPAPSAPAASPAAPAPASPAAPAPSAPAASPAAPAPASPAAPAPSAPAASPAAPAPASPAAPAPSAPAASPAAPAPASPAAPAPSAPASDTGRPFVEMYSEIPEIIHMTEGRELVIPCRVTSPNITVTLKKFPLDTLIPDGKRIIWDSRKGFIISNATYKEIGLLTCEATVNGHLYKTNYLTHRQTNTIIDVVLSPSHGIELSVGEKLVLNCTARTELNVGIDFNWEYPSSKHQHKKLVNRDLKTQSGSEMKKFLSTLTIDGVTRSDQGLYTCAASSGLMTKKNSTFVRVHEKHHHHHH
notes: Expressed in CHO-3E7 cells, purified over a Ni column; also called EPS1103P
B4: PAS(200)-PDGFRαD123-VEGFR1D2/R2D3 (receptor)
chain: HHHHHHASPAAPAPASPAAPAPSAPAASPAAPAPASPAAPAPSAPAASPAAPAPASPAAPAPSAPAASPAAPAPASPAAPAPSAPAASPAAPAPASPAAPAPSAPAASPAAPAPASPAAPAPSAPAASPAAPAPASPAAPAPSAPAASPAAPAPASPAAPAPSAPAASPAAPAPASPAAPAPSAPAASPAAPAPASPAAPAPSAPAQLSLPSILPNENEKVVQLNSSFSLRCFGESEVSWQYPMSEEESSDVEIRNEENNSGLFVTVLEVSSASAAHTGLYTCYYNHTQTEENELEGRHIYIYVPDPDVAFVPLGMTDYLVIVEDDDSAIIPCRTTDPETPVTLHNSEGVVPASYDSRQGFNGTFTVGPYICEATVKGKKFQTIPFNVYALKATSELDLEMEALKTVYKSGETIVVTCAVFNNEVVDLQWTYPGEVKGKGITMLEEIKVPSIKLVYTLTVPEATVKDSGDYECAARQATREVKEMKKVTISVHEKGSDTGRPFVEMYSEIPEIIHMTEGRELVIPCRVTSPNITVTLKKFPLDTLIPDGKRIIWDSRKGFIISNATYKEIGLLTCEATVNGHLYKTNYLTHRQTNTIIDVVLSPSHGIELSVGEKLVLNCTARTELNVGIDFNWEYPSSKHQHKKLVNRDLKTQSGSEMKKFLSTLTIDGVTRSDQGLYTCAASSGLMTKKNSTFVRVHEK
notes: the tag stands at the N-terminus; also called EPS1110P
B5: VEGFR1D2/R2D3-(GGGGS)3-PAS(600)-(GGGGS)3-PDGFRαD123 (receptor)
chain: SDTGRPFVEMYSEIPEIIHMTEGRELVIPCRVTSPNITVTLKKFPLDTLIPDGKRIIWDSRKGFIISNATYKEIGLLTCEATVNGHLYKTNYLTHRQTNTIIDVVLSPSHGIELSVGEKLVLNCTARTELNVGIDFNWEYPSSKHQHKKLVNRDLKTQSGSEMKKFLSTLTIDGVTRSDQGLYTCAASSGLMTKKNSTFVRVHEKGGGGSGGGGSGGGGSASPAAPAPASPAAPAPSAPAASPAAPAPASPAAPAPSAPAASPAAPAPASPAAPAPSAPAASPAAPAPASPAAPAPSAPAASPAAPAPASPAAPAPSAPAASPAAPAPASPAAPAPSAPAASPAAPAPASPAAPAPSAPAASPAAPAPASPAAPAPSAPAASPAAPAPASPAAPAPSAPAASPAAPAPASPAAPAPSAPAASPAAPAPASPAAPAPSAPAASPAAPAPASPAAPAPSAPAASPAAPAPASPAAPAPSAPAASPAAPAPASPAAPAPSAPAASPAAPAPASPAAPAPSAPAASPAAPAPASPAAPAPSAPAASPAAPAPASPAAPAPSAPAASPAAPAPASPAAPAPSAPAASPAAPAPASPAAPAPSAPAASPAAPAPASPAAPAPSAPAASPAAPAPASPAAPAPSAPAASPAAPAPASPAAPAPSAPAASPAAPAPASPAAPAPSAPAASPAAPAPASPAAPAPSAPAASPAAPAPASPAAPAPSAPAASPAAPAPASPAAPAPSAPAASPAAPAPASPAAPAPSAPAASPAAPAPASPAAPAPSAPAASPAAPAPASPAAPAPSAPAASPAAPAPASPAAPAPSAPAAGGGGSGGGGSGGGGSQLSLPSILPNENEKVVQLNSSFSLRCFGESEVSWQYPMSEEESSDVEIRNEENNSGLFVTVLEVSSASAAHTGLYTCYYNHTQTEENELEGRHIYIYVPDPDVAFVPLGMTDYLVIVEDDDSAIIPCRTTDPETPVTLHNSEGVVPASYDSRQGFNGTFTVGPYICEATVKGKKFQTIPFNVYALKATSELDLEMEALKTVYKSGETIVVTCAVFNNEVVDLQWTYPGEVKGKGITMLEEIKVPSIKLVYTLTVPEATVKDSGDYECAARQATREVKEMKKVTISVHEKGHHHHHH
notes: also called EPS1115P
B6: PDGFRαD123-PAS(600)-VEGFR1D2/R2D3 (receptor)
chain: QLSLPSILPNENEKVVQLNSSFSLRCFGESEVSWQYPMSEEESSDVEIRNEENNSGLFVTVLEVSSASAAHTGLYTCYYNHTQTEENELEGRHIYIYVPDPDVAFVPLGMTDYLVIVEDDDSAIIPCRTTDPETPVTLHNSEGVVPASYDSRQGFNGTFTVGPYICEATVKGKKFQTIPFNVYALKATSELDLEMEALKTVYKSGETIVVTCAVFNNEVVDLQWTYPGEVKGKGITMLEEIKVPSIKLVYTLTVPEATVKDSGDYECAARQATREVKEMKKVTISVHEKGASPAAPAPASPAAPAPSAPAASPAAPAPASPAAPAPSAPAASPAAPAPASPAAPAPSAPAASPAAPAPASPAAPAPSAPAASPAAPAPASPAAPAPSAPAASPAAPAPASPAAPAPSAPAASPAAPAPASPAAPAPSAPAASPAAPAPASPAAPAPSAPAASPAAPAPASPAAPAPSAPAASPAAPAPASPAAPAPSAPAASPAAPAPASPAAPAPSAPAASPAAPAPASPAAPAPSAPAASPAAPAPASPAAPAPSAPAASPAAPAPASPAAPAPSAPAASPAAPAPASPAAPAPSAPAASPAAPAPASPAAPAPSAPAASPAAPAPASPAAPAPSAPAASPAAPAPASPAAPAPSAPAASPAAPAPASPAAPAPSAPAASPAAPAPASPAAPAPSAPAASPAAPAPASPAAPAPSAPAASPAAPAPASPAAPAPSAPAASPAAPAPASPAAPAPSAPAASPAAPAPASPAAPAPSAPAASPAAPAPASPAAPAPSAPAASPAAPAPASPAAPAPSAPAASPAAPAPASPAAPAPSAPAASPAAPAPASPAAPAPSAPAASPAAPAPASPAAPAPSAPAASPAAPAPASPAAPAPSAPAASDTGRPFVEMYSEIPEIIHMTEGRELVIPCRVTSPNITVTLKKFPLDTLIPDGKRIIWDSRKGFIISNATYKEIGLLTCEATVNGHLYKTNYLTHRQTNTIIDVVLSPSHGIELSVGEKLVLNCTARTELNVGIDFNWEYPSSKHQHKKLVNRDLKTQSGSEMKKFLSTLTIDGVTRSDQGLYTCAASSGLMTKKNSTFVRVHEKHHHHHH
notes: also called EPS1113P

For the assay, the target named is T1, human VEGF165 ligand (human, UniProt P15692-4 27-191).
T1 construct: also called VEGF-A165
T1 sequence (P15692 other isoform, or with tags, fused parts or gaps limits assumed): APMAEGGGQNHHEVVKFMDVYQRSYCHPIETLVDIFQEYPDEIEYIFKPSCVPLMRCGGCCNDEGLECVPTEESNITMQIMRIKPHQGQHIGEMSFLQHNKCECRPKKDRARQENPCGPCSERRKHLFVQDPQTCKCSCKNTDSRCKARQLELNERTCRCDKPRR
Put plainly: serial dilution mixed with 50 pM human VEGF165 in solution, unbound VEGF165 measured by ELISA. How it is done:
The amount of unbound VEGF₁₆₅ was then measured by a human VEGF-specific ELISA (Human VEGF DuoSet ELISA kit, R&D Systems, CAT. No. DY293B-05).
Unbound human VEGF₁₆₅ or PDGF-BB was calculated using 4 parameters curve with the absorbance value. And the IC₅₀ of the tested fusion proteins and the reference was calculated using 4 parameters curve with unbound human VEGF₁₆₅ or PDGF-BB.
The molecule B1 had a half-inhibitory concentration (IC50) of 218 pM.

On to B2, for which the IC50 came to 506 pM.

The molecule B3 returned an IC50 of 869 pM.

Consider B4, for which the half-inhibitory concentration (IC50) amounted to 331 pM.

The molecule B5 yielded an IC50 of 440 pM.

The molecule B6 displayed an IC50 of 646 pM. The IC50 values of the last two molecules are within 1.5-fold of each other.

Source of the values: patent US20210139559A1 (XL PROTEIN, published 2021).
